{
  "source": "patent US6121423",
  "about": "“Reshaped human antibody to human interleukin-6” (Chugai Seiyaku Kabushiki Kaisha, dated 2000)",
  "target": "recombinant human IL-6 (human, UniProt P05231, biotinylated in the binding-inhibition assay (sites not given); unlabelled in the antigen-binding assay)",
  "assay": "ELISA, IL-6 captured by MH166",
  "experimental": "An ELISA plate for antigen-binding assay was prepared as follows. A 96-well plate was coated with mouse monoclonal antibody MH166 recognizing a different epitope of human IL-6 from that recognized by SK2 (Matsuda, T. et al., Eur. J. Immunol. 18, 951–956, 1988), and after blocking, recombinant human IL-6 was added thereto. A sample of the chimeric SK2 antibody was sequentially diluted, added to each well, and then an alkaline phosphatase-conjugated goat anti-human IgG antibody (Sigma) was added thereto. After incubation and washing, substrate was added, and absorbance at 405 nm was measured.",
  "data": [
    {"binder": "chimeric SK2 antibody NTS (antibody, V domains shown) VH: QVTLKESGPGILQPSQTLSLTCSFSGFSLSTSGMTVGWIRQPSGKGLEWLAHIWWNDDKYYNPALKGRLTISKDTSNNQVFLKIASVVTADTATYYCARMEDYDEAMDYWGQGTSVTVSS VL: DIQMTQSPASLSVSVGETVTITCRASENIYSNLAWYQQKQGKSPQLLVYAATYLADGVPSRFSGSGSGTQYSLKINSLQSEDFGSYYCQHFWGTPPFGSGTKLEIK", "values": [
      {"measurement": "binding result", "result": "binds"}
    ]}
  ]
}
